Results published in article PMC5560099.

System: O=C(Cc1cccs1)N[C@@H]1C(=O)N2C(C(=O)O)=C(/C=C/c3ccc([N+](=O)[O-])cc3[N+](=O)[O-])CS[C@H]12
Experiment: steady-state hydrolysis kinetics with purified PenA
Type: biochemical, Burkholderia multivorans

PenA β-lactamase (Burkholderia multivorans ATCC 17616)
Km: 147 ± 15 µM
kcat/Km: 3.2e+06 ± 300000 M⁻¹ s⁻¹
